Columns and labels:
[1] = test system: DasR (Saccharopolyspora erythraea); assay: BLI; conditions: EMSA: 10 mM Tris-HCl pH 8.0, 25 mM MgCl2, 50 mM NaCl, 1 mM DTT, 1 mM EDTA, 0.01% NP-40, 50 ug/mL poly(dIdC), 10% glycerol, 18 C, 30 min, BLI: 10 mM HEPES pH …
[2] = molecular target: T1, DasR (His-DasR) of S. erythraea (Saccharopolyspora erythraea, UniProt A4F723); assay: isothermal titration calorimetry; format: binding
T1 construct: gene SACE_0500; full-length, His-tagged, expressed in E. coli BL21(DE3), Ni-NTA purified; predominantly dimer (c-di-AMP promotes dimerization)
T1 sequence (A4F723 1-251): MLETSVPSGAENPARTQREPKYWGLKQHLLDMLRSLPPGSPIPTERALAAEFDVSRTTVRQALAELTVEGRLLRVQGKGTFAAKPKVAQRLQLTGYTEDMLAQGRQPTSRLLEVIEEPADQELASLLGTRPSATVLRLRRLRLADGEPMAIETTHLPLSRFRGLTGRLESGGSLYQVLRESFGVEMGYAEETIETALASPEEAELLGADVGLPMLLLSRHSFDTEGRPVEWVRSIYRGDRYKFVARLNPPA

ScoDasR (DasR^Sco) = molecular target: T2, ScoDasR (DasR^Sco) (Streptomyces coelicolor, UniProt Q9K492); assay: isothermal titration calorimetry; format: binding
T2 construct: full-length, His-tagged, expressed in E. coli BL21(DE3), Ni-NTA purified; GntR family, predominantly dimer
T2 sequence (Q9K492 1-254): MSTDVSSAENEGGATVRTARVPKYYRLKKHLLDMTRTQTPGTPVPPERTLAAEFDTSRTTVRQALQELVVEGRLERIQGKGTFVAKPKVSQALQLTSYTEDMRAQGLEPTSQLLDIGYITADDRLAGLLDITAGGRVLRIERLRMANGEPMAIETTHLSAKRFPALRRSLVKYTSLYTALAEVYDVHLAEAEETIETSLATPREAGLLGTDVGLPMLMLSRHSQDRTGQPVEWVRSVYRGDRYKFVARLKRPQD

Kd [2] [µM] | Kd (ScoDasR (DasR^Sco)) [µM] | Compound | Kd ([1]; 100 uM c-di-AMP) [µM] | Kd ([1]; no c-di-AMP) [µM]
– | – | nagA promoter | 0.44 | 19
26.8 | 23 | Nc1ncnc2c1ncn2[C@@H]1O[C@@H]2COP(=O)(O)O[C@H]3[C@@H](O)[C@H](n4cnc5c(N)ncnc54)O[C@@H]3COP(=O)(O)O[C@H]2[C@H]1O [c-di-AMP] | – | –

Source: PMC11076491, “Allosteric regulation by c-di-AMP modulates a complete N-acetylglucosamine signaling cascade in Saccharopolyspora erythraea” (Nature Communications, 2024)
